# Laboratory results from PMC10303025.
# T1: M2-1 transcription antiterminator (Human respiratory syncytial virus, UniProt P04545 1-194)
# T1 sequence: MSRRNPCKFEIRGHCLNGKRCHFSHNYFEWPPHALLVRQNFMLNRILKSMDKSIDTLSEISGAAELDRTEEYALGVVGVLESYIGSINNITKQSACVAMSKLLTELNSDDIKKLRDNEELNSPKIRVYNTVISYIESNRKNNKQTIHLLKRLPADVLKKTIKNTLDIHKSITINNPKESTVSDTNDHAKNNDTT
# Target: T1, M2-1 transcription antiterminator
# Test: not stated (EMSA and fluorescence polarization titrations mentioned); Kd may derive from earlier work [37]
# Settings: protein: recombinant; chain copies: 4; label: 5' 6-FAM; single strand
binder,measurement,value
AUAAAGUAGUUAAUUAAAAA (ssRNA) [RNARSV20 (SH gene end 20-mer)],Kd,20 nM
